The text below walks through data of the supplement of paper PMC11908140.

B1: library; numbered along this chain (parent)
chain: MRKPRAAVGSGHRKQAASQEGRQKHAKNNSQAKPSACDGLARQPEEVVLQASVSSYHLFRDVAEVTAFRGSLLSWYDQEKRDLPWRRRAEDEMDLDRRAYAVWVSEVMLQQTQVATVINYYTGWMQKWPTLQDLASASLEEVNQLWAGLGYYSRGRRLQEGARKVVEELGGHMPRTAETLQQLLPGVGRYTAGAIASIAFGQATGVVDGNVARVLCRVRAIGADPSSTLVSQQLWGLAQQLVDPARPGDFNQAAMELGATVCTPQRPLCSQCPVESLCRARQRVEQEQLLASGSLSGSPDVEECAPNTGQCHLCLPPSEPWDQTLGVVNFPRKASRKPPREESSATCVLEQPGALGAQILLVQRPNSGLLAGLWEFPSVTWEPSEQLQRKALLQELQRWAGPLPATHLRHLGEVVHTFSHIKLTYQVYGLALEGQTPVTTVPPGARWLTQEEFHTAAVSTAMKKVFRVYQGQQPGTCMGSKRSQVSSPCSRKKPRMGQQVLDNFFRSHISTDAHSLNSAAQ

Variants of B1 are the subject of this series. As to the kind of experiment: 8OG:A repair function score (normalized; synonymous = 0, nonsense = -1) (normalized log-likelihood score); higher = more repair activity (WT-like). The following applies: with 8OG:A DNA repair reporter (GFP) in HEK-293 MUTYH KO cells. In outline:
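Lentiviral MUTYH cDNA NNN codon-scan libraries in HEK-293 MUTYH knockout cells (10 pg/ml doxycycline) were co-transfected with an 8OG:A GFP repair reporter plus mCherry. At 72 h, viable mCherry+ cells were sorted into GFP+ (repair) and GFP− bins, three replicates per tile, then tile amplicons were sequenced. Per-tile Rosace fitness scores became a normalized repair function score anchored on synonymous and nonsense distributions. Synonymous medians were set to 0 and nonsense to -1; variants under 300 counts per million at the start were removed.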
Take MRKPRAAVGSGHRKQAASQEGRQKHAKNNSQAKPSACDGLARQPEEVVLQASVSSYHLFRDVAEVTAFRGSLLSWYDQEKRDLPWRRRAEDEMDLDRRAYAVWVSEVMLQQTQVATVINYYTGWMQKWPTLQDLASASLEEVNQLWAGLGYYSRGRRLQEGARKVVEELGGHMPRTAETLQQLLPGVGRYTAGAIASIAFGQATGVVDGNVARVLCRVRAIGADPSSTLVSQQLWGLAQQLVDPARPGDFNQAAMELGATVCTPQRPLCSQCPVESLCRARQRVEQEQLLASGSLSGSPDVEECAPNTGQCHLCLPPSEPWDQTLGVVNFPRKASRKPPREESSATCVLEQPGALGAQILLVQRPNSGLLAGLWEFPSVTWEPSEQLQRKALLQELQRHAGPLPATHLRHLGEVVHTFSHIKLTYQVYGLALEGQTPVTTVPPGARWLTQEEFHTAAVSTAMKKVFRVYQGQQPGTCMGSKRSQVSSPCSRKKPRMGQQVLDNFFRSHISTDAHSLNSAAQ [W399H]: the “8OG:A repair function score” value is -0.291.

For MRKPRAAVGSGHRKQAASQEGRQKHAKNNSQAKPSACDGLARQPEEVVLQASVSSYHLFRDVAEVTAFRGSLLSWYDQEKRDLPWRRRAEDEMDLDRRAYAVWVSEVMLQQTQVATVINYYTGWMQKWPTLQDLASASLEEVNQLWAGLGYYSRGRRLQEGARKVVEELGGHMPRTAETLQQLLPGVGRYTAGAIASIAFGQATGVVDGNVARVLCRVRAIGADPSSTLVSQQLWGLAQQLVDPARPGDFNQAAMELGATVCTPQRPLCSQCPVESLCRARQRVEQEQLLASGSLSGSPDVEECAPNTGQCHLCLPPSEPWDQTLGVVNFPRKASRKPPREESSATCVLEQPGALGAQILLVQRPNSGLLAGLWEFPSVTWEPSEQLQRKALLQELQRMAGPLPATHLRHLGEVVHTFSHIKLTYQVYGLALEGQTPVTTVPPGARWLTQEEFHTAAVSTAMKKVFRVYQGQQPGTCMGSKRSQVSSPCSRKKPRMGQQVLDNFFRSHISTDAHSLNSAAQ [W399M], the “8OG:A repair function score” value was -0.301.

MRKPRAAVGSGHRKQAASQEGRQKHAKNNSQAKPSACDGLARQPEEVVLQASVSSYHLFRDVAEVTAFRGSLLSWYDQEKRDLPWRRRAEDEMDLDRRAYAVWVSEVMLQQTQVATVINYYTGWMQKWPTLQDLASASLEEVNQLWAGLGYYSRGRRLQEGARKVVEELGGHMPRTAETLQQLLPGVGRYTAGAIASIAFGQATGVVDGNVARVLCRVRAIGADPSSTLVSQQLWGLAQQLVDPARPGDFNQAAMELGATVCTPQRPLCSQCPVESLCRARQRVEQEQLLASGSLSGSPDVEECAPNTGQCHLCLPPSEPWDQTLGVVNFPRKASRKPPREESSATCVLEQPGALGAQILLVQRPNSGLLAGLWEFPSVTWEPSEQLQRKALLQELQRQAGPLPATHLRHLGEVVHTFSHIKLTYQVYGLALEGQTPVTTVPPGARWLTQEEFHTAAVSTAMKKVFRVYQGQQPGTCMGSKRSQVSSPCSRKKPRMGQQVLDNFFRSHISTDAHSLNSAAQ [W399Q]: the “8OG:A repair function score” value was -0.108.

Regarding MRKPRAAVGSGHRKQAASQEGRQKHAKNNSQAKPSACDGLARQPEEVVLQASVSSYHLFRDVAEVTAFRGSLLSWYDQEKRDLPWRRRAEDEMDLDRRAYAVWVSEVMLQQTQVATVINYYTGWMQKWPTLQDLASASLEEVNQLWAGLGYYSRGRRLQEGARKVVEELGGHMPRTAETLQQLLPGVGRYTAGAIASIAFGQATGVVDGNVARVLCRVRAIGADPSSTLVSQQLWGLAQQLVDPARPGDFNQAAMELGATVCTPQRPLCSQCPVESLCRARQRVEQEQLLASGSLSGSPDVEECAPNTGQCHLCLPPSEPWDQTLGVVNFPRKASRKPPREESSATCVLEQPGALGAQILLVQRPNSGLLAGLWEFPSVTWEPSEQLQRKALLQELQRLAGPLPATHLRHLGEVVHTFSHIKLTYQVYGLALEGQTPVTTVPPGARWLTQEEFHTAAVSTAMKKVFRVYQGQQPGTCMGSKRSQVSSPCSRKKPRMGQQVLDNFFRSHISTDAHSLNSAAQ [W399L], the “8OG:A repair function score” value was determined as 0.1.

In the case of MRKPRAAVGSGHRKQAASQEGRQKHAKNNSQAKPSACDGLARQPEEVVLQASVSSYHLFRDVAEVTAFRGSLLSWYDQEKRDLPWRRRAEDEMDLDRRAYAVWVSEVMLQQTQVATVINYYTGWMQKWPTLQDLASASLEEVNQLWAGLGYYSRGRRLQEGARKVVEELGGHMPRTAETLQQLLPGVGRYTAGAIASIAFGQATGVVDGNVARVLCRVRAIGADPSSTLVSQQLWGLAQQLVDPARPGDFNQAAMELGATVCTPQRPLCSQCPVESLCRARQRVEQEQLLASGSLSGSPDVEECAPNTGQCHLCLPPSEPWDQTLGVVNFPRKASRKPPREESSATCVLEQPGALGAQILLVQRPNSGLLAGLWEFPSVTWEPSEQLQRKALLQELQRKAGPLPATHLRHLGEVVHTFSHIKLTYQVYGLALEGQTPVTTVPPGARWLTQEEFHTAAVSTAMKKVFRVYQGQQPGTCMGSKRSQVSSPCSRKKPRMGQQVLDNFFRSHISTDAHSLNSAAQ [W399K], the “8OG:A repair function score” value is -0.616.

On to MRKPRAAVGSGHRKQAASQEGRQKHAKNNSQAKPSACDGLARQPEEVVLQASVSSYHLFRDVAEVTAFRGSLLSWYDQEKRDLPWRRRAEDEMDLDRRAYAVWVSEVMLQQTQVATVINYYTGWMQKWPTLQDLASASLEEVNQLWAGLGYYSRGRRLQEGARKVVEELGGHMPRTAETLQQLLPGVGRYTAGAIASIAFGQATGVVDGNVARVLCRVRAIGADPSSTLVSQQLWGLAQQLVDPARPGDFNQAAMELGATVCTPQRPLCSQCPVESLCRARQRVEQEQLLASGSLSGSPDVEECAPNTGQCHLCLPPSEPWDQTLGVVNFPRKASRKPPREESSATCVLEQPGALGAQILLVQRPNSGLLAGLWEFPSVTWEPSEQLQRKALLQELQRIAGPLPATHLRHLGEVVHTFSHIKLTYQVYGLALEGQTPVTTVPPGARWLTQEEFHTAAVSTAMKKVFRVYQGQQPGTCMGSKRSQVSSPCSRKKPRMGQQVLDNFFRSHISTDAHSLNSAAQ [W399I], for which the “8OG:A repair function score” value is -0.15.
